The target of the experiment is human recombinant adrenomedullin receptor (CRLR+RAMP3) (Homo sapiens).

One substance from patent US20140314775A1 can be followed below.

One may read the EC50 (read off the curve) as the concentration at which the effect is half-maximal. Consider “human Adrenomedullin (hADM 1-52) (peptide)”, for which the concentration giving a half-maximal response (EC50 (read off the curve)) amounted to 1 nM.
